Data as given in US20240124575A1 (SIMCERE ZAIMING PHARMACEUTICAL, published 2024).

Key:
[1] = molecular target: T1, human CD33-His (extracellular domain Asp 18-His 259) (human, UniProt P20138 18-259); assay: ELISA on coated human CD33-his
T1 construct: range 18-259; bought protein; also called hCD33-his; human CD33 protein; not shown: His tag
Procedure: In order to assay the binding activity of VHH-Fc to human CD33 protein, a human CD33-his protein (purchased from ACROBiosystems, Cat. No. CD3-H5226) was diluted with PBS to make a final concentration of 2 μg/mL, and then added into a 96-well ELISA plate at 100 μL/well. The plate was sealed with a plastic film and incubated at 4° C. overnight, washed twice with PBS the next day, and a blocking solution [PBS+2% (w/w) BSA] was added for blocking at room temperature for 2 h. The blocking solution was discarded, and VHH-Fc antibody or negative control antibody serially diluted from 100 nM was added at 50 μL/well. After incubation at 37° C. for 2 h, the plate was washed 3 times with PBS. A secondary antibody labeled with HRP (horseradish peroxidase) (purchased from Sigma, Cat. No. A0170) was added. After incubation for 1 h at 37° C., the plate was washed 5 times with PBS. A TMB substrate was added at 50 μL/well. After incubation at room temperature for 10 min, a stop solution (1.0 N HCl) was added at 50 μL/well. The OD450 nm values were read on an ELISA plate reader (Multimode Plate Reader, EnSight, purchased from Perkin Elmer). The assay results for the binding of the VHH-Fc to hCD33-his by ELISA are shown in FIGS. 7A and 7B and Tables 11 and 12. […] The IgG control was hIgG1, and the data in the table are OD450 nm values. […]

[2] = molecular target: T1, human CD33-His (extracellular domain …); assay: competitive ELISA vs coated S006-NB146-173 3ug/mL; soluble 25ug/ml
[3] = molecular target: T2, monkey CD33-His protein (monkey); assay: ELISA on coated monkey CD33-his
T2 construct: also called monkey CD33 protein

[4] = molecular target: T3, human CD33-C2-his (human, UniProt P20138 136-260); assay: ELISA on coated human CD33-C2-his
T3 construct: expressed in HEK293E; also called hCD33-C2-his; human CD33 protein C2-domain; not shown: His tag

[5] = molecular target: T1, human CD33-His (extracellular domain …); assay: competitive ELISA vs coated S006-NB146-150 3ug/mL; soluble 25ug/ml
[6] = molecular target: T4, human CD33-his protein (human, UniProt P20138 18-259); assay: competition ELISA, coated human CD33-his, vs Biotin-C33B904 at EC80; antibody 125.00 nM
T4 construct: range 18-259; bought protein; also called hCD33-his; recombinant human CD33-his; not shown: His tag
Procedure: (§1) The plate was sealed with a plastic film and incubated at 4° C. overnight, washed twice with PBS the next day, and a blocking solution [PBS+2% (w/w) BSA] was added for blocking at room temperature for 2 h. The blocking solution was discarded, and VHH-Fc antibody or negative control antibody serially diluted from 100 nM was added at 50 μL/well. After incubation at 37° C. for 2 h, the plate was washed 3 times with PBS. A secondary antibody labeled with HRP (horseradish peroxidase) (purchased from Sigma, Cat. No. A0170) was added. After incubation for 1 h at 37° C., the plate was washed 5 times with PBS. A TMB substrate was added at 50 μL/well. After incubation at room temperature for 10 min, a stop solution (1.0 N HCl) was added at 50 μL/well. The OD450 nm values were read on an ELISA plate reader (Multimode Plate Reader, EnSight, purchased from Perkin Elmer). The assay results for the binding of the VHH-Fc to hCD33-his by ELISA are shown in FIGS. 7A and 7B and Tables 11 and 12. […] The IgG control was hIgG1, and the data in the table are OD450 nm values.
(§2) ELISA plates were coated with 2 μg/mL human CD33-his protein according to the method in Example 5.1; the Biotin-C331B904 antibody was subjected to a gradient dilution from 15 μg/mL, and EC80 values (0.18 μg/mL) were calculated. […] OD_{450 nm} values were read using an ELISA plate reader (Insight, purchased from PerkinElmer). […]

[7] = molecular target: T4, human CD33-his protein; assay: competition ELISA, coated human CD33-his, vs Biotin-C33B904 at EC80; antibody 0.49 nM
Procedure: as §1, §2

[8] = molecular target: T4, human CD33-his protein; assay: competition ELISA, coated human CD33-his, vs Biotin-C33B904 at EC80; antibody 0.98 nM
Procedure: (§3) ELISA plates were coated with 2 μg/mL human CD33-his protein according to the method in Example 5.1; the Biotin-C331B904 antibody was subjected to a gradient dilution from 15 μg/mL, and EC80 values (0.18 μg/mL) were calculated. ELISA plates were coated with 2 μg/mL human CD33-his protein; starting from 40 μg/mL, the VHH antibodies to be tested were diluted in a 1:2 dilution ratio to obtain seven concentrations and added to the ELISA plates, and then Biotin-C331904 antibodies with the EC80 concentrations were added for incubation for 2 h. The plates were washed 5 times with PBS and then […] (purchased from Sigma, Cat. No. S2438) were added for incubation for 1 h, and the plates were washed 5 times. A TMB substrate was added at 50 μL/well and incubated at room temperature for 10 min, then a stop solution (1.0 M HCl) was added at 50 μL/well. OD_{450 nm} values were read using an ELISA plate reader (Insight, purchased from PerkinElmer). Then, analysis was performed by software (GraphPad Prism8), and data were fitted for curve plotting. The results are shown in FIGS. 13A-13B and Tables 28 and 29.

[9] = molecular target: T4, human CD33-his protein; assay: competition ELISA, coated human CD33-his, vs Biotin-C33B904 at EC80; antibody 500 nM
Procedure: as §3

[10] = molecular target: T4, human CD33-his protein; assay: competition ELISA, coated human CD33-his, vs Biotin-C33B904 at EC80; antibody 125.00 nM; remark: listed apart in the source
Procedure: as §3

[11] = molecular target: T5, monkey CD33-his protein (monkey); assay: SPR (Biacore), antibody captured on Protein A chip, monkey CD33 analyte
T5 construct: bought protein; also called monkey CD33 protein (Sino Biological, Cat. No. 50712-M08H)

T1 sequence (P20138 18-259 limits assumed): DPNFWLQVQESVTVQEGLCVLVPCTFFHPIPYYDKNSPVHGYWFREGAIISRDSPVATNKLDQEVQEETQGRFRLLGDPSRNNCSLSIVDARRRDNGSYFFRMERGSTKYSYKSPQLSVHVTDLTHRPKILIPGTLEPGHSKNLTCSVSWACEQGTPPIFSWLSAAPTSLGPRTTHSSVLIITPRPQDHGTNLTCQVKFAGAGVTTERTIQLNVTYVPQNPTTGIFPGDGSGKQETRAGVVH
T4 sequence (P20138 18-259 limits assumed): as above
T3 sequence (P20138 other isoform, or with tags, fused parts or gaps limits assumed): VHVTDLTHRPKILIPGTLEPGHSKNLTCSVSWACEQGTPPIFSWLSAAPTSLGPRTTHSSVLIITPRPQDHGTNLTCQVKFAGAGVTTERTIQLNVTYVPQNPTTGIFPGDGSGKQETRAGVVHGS

Binder | EC50 (read off the curve) [1] | inhibition rate [2] | EC50 (read off the curve) [3] | EC50 (read off the curve) [4] | inhibition rate [5] | OD450 (Biotin-C33B904 signal) [6] | OD450 (Biotin-C33B904 signal) [7] | OD450 (Biotin-C33B904 signal) [8] | OD450 (Biotin-C33B904 signal) [9] | OD450 (Biotin-C33B904 signal) [10] | Kd [11] | koff [11] | kon [11]
C33B904 hIgG1 (antibody, V domains shown, intact human IgG1; variable regions from US20190382481A1; also called C33B3904; C331B904) VH: EVQLVESGGGLVQPGRSLRLSCAASGFTFDDYAMHWVRQAPGKGLEWVSGIGWSGGSIVYADSVKGRFTISRDNAKNSLYLQMNSLRAEDTALYYCAKDSPYGDFFDYWGQGTLVTVSS VL: DIVMTQSPDSLAVSLGERATINCKSSQTVFYSSNNKNYLAWYQQKPGQPPKLLISWASTRKSGVPDRFSGSGSGTDFTLTVSSLQAEDVAVYYCQHYYSTPYTFGQGTKLEIKR | ~300 pM | 100% | ~200 pM | ~300 pM | 100% |  |  |  |  |  |  |  | 
C33B904 (antibody, human IgG1, kappa, V domains shown, control antibody, intact human IgG1 form; variable regions from US20190382481A1; also called C33B904 hIgG1; C331B904) VH: EVQLVESGGGLVQPGRSLRLSCAASGFTFDDYAMHWVRQAPGKGLEWVSGIGWSGGSIVYADSVKGRFTISRDNAKNSLYLQMNSLRAEDTALYYCAKDSPYGDFFDYWGQGTLVTVSS VL: DIVMTQSPDSLAVSLGERATINCKSSQTVFYSSNNKNYLAWYQQKPGQPPKLLISWASTRKSGVPDRFSGSGSGTDFTLTVSSLQAEDVAVYYCQHYYSTPYTFGQGTKLEIKR |  |  |  |  |  | 0.16 | 2.44 | 2.22 | 0.08 | 0.13 | 565 pM | 0.000626 s⁻¹ | 1.11e+06 M⁻¹ s⁻¹
